Source: patent US20260152577A1

Target: human CD3 on T cells (human) (UniProt P07766)
Experiment: FACS on Jurkat cells

- affinity: 0.27 nM
Substance: OKT3-hIgG1 (antibody)
